Source: patent publication US12673985B2, “Method for the treatment or prophylaxis of cancer by targeting the extracellular portion of keratin 14 (KRT14) residing on cancer cells” (Hudson Institute of Medical Research, priority 2019, dated 2026)

Experiments:
[1] = molecular target: T1, KRT14 (Homo sapiens, UniProt P02533); assay: Immunohistochemical staining of FFPE tumour tissue sections; conditions: 2 μg/ml-0.25 μg/ml, overnight incubation
T1 sequence (P02533 1-472): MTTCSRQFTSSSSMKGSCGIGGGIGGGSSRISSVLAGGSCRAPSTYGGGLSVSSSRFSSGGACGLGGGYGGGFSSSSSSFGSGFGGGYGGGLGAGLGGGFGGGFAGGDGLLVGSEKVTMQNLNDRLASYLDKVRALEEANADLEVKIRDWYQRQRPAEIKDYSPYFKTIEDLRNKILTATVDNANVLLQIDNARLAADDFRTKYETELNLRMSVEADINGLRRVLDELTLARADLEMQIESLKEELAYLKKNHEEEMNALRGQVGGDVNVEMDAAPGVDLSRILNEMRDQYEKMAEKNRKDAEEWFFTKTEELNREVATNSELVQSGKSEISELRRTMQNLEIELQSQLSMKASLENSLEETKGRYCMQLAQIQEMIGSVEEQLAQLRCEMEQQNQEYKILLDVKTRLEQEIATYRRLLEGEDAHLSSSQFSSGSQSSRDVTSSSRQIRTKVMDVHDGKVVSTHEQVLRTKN
Description: Human Tissue Arrays and Immunohistochemistry. Immunohistochemistry was performed on tissue micrarray (TMA) sections purchased from USBIOMAX (#ov2085, #ov20811) or generated in house (tumour and fallopian tube) as previously described [Bilandzic et al. (2014) Cancer Lett 354(1):107-114; Rainczuk et al. (2013) J Proteome Res; Salamonsen et al. (2013) Fertil Steril 99(4):1086-92](Supplementary Data 6 and 7). For antigen retrieval, sections were incubated for 10 minutes in 50 mM glycine (pH 3.5) at 90° C. Sections were incubated overnight at 4° C. with Rb-KRT14 antibody (1:100, Sigma, SAB4501657) and mAb AN-17 (1:500) in 0.1% w/v BSA/PBS. Subsequent steps were performed at room temperature, with PBS washes between incubations. […] Antibody binding was detected as a brown precipitate after development with 3,3′-diaminobenzidine tetrahydrochloride, and Harris hematoxylin was used as counterstain. […] Positive immunostaining was assessed relative to parallel sections exposed to an isotype (IgG) control. Immunostaining in tumor and stromal tissue was assessed using Aperio ImageScope (v 12.3.3) as described (Rainczuk et al. (2013) supra). […]

[2] = tested on: ID8 ovarian tumour; conditions: mouse, in vivo
Description: Control mice received vehicle (PBS) alone. At time points from 4 hr to 7 days post-injection, mice were culled and selected tissues (liver, kidney, spleen, intestine, ovary+fallopian tube/ovarian tumour (as relevant), brain, heart, lung) were harvested. Tissue distribution and clearance were assessed by ALEXA647 or ALEXA750 fluorescence using an IVIS Lumina III Imaging System (Perkin Elmer). Bright-field (auto-exposure) and fluorescence imaging (ALEXA647 ex640, em670; or ALEXA750 ex740, em790 nm). Spectral unmixing and image analysis were performed as previously described (PMID: 30602661; Wilson et al., Cancers (Basel). 2018 Dec. 31; 11(1), E32). Background average radiant efficiency from vehicle-treated animals were subtracted from fluorescence measurements in each case, and the resulting data plotted for comparison.

[3] = molecular target: T1, KRT14; assay: Immunofluorescence staining of ovarian cancer cell lines SKOV-3, Ovcar4 and Cov362.3; type: cell-based; design: endogenous in cells; host or cells: SKOV-3, Ovcar4, Cov362.3; conditions: 1 μg/ml
Description: The ovarian cancer cell lines SKOV-3, Ovcar4 and Cov362.3 were seeded onto 96 well black fluortrac imaging plates. Intact or fixed (1% paraformaldehyde; PFA) and permeabilized (0.1% Triton X) cells were stained using mAb AN-17. For fixed cells, samples were blocked in 10% fetal bovine serum (FBS) and then stained with 1 μg/ml mAb AN-17 for one hour at room temperature. Cells were subsequently washed with PBS and stained with the Alexa Fluor®-647 goat anti-mouse secondary at 1:2000 for one hour at room temperature. For intact cells, samples were stained with 1 μg/ml mAb AN-17 conjugated to Alexa-647 in PBS containing 1% FBS for two hours at 37° C., the medium was replaced with fresh PBS/1% FBS and cells were immediately imaged. Samples were imaged using the Cytation 3 multimode reader at 4× magnification.

[4] = molecular target: T2, full-length recombinant KRT14 protein (Homo sapiens, UniProt P02533); assay: Western blotting for KRT14 detection; type: binding; conditions: dilutions 1:1000 to 1:10,000; 1 μg protein
T2 construct: A 1 μg aliquot of full-length recombinant KRT14 protein (Abcam #ab73637) was separated by SDS PAGE; purchased Abcam ab73637
T2 sequence (P02533 1-472): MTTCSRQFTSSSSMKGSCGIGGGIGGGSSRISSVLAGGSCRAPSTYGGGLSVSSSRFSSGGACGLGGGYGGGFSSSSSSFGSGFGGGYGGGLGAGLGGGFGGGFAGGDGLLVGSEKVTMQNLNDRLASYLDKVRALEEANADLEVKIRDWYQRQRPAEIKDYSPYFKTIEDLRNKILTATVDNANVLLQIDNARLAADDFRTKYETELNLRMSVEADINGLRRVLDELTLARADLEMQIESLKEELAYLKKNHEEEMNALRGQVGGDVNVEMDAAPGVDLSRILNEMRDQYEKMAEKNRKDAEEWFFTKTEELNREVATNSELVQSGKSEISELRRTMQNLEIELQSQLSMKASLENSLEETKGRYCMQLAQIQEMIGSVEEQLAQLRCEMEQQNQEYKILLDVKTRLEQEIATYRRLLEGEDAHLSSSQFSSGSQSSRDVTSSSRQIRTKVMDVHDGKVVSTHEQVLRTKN
Description: Western Blot analyses. SDS-PAGE and western blotting were performed as previously described in Bilandzic et al. (2013) Mol Endocrinol, 2013. 27(3):466-79). Blots were probed using antibodies against KRT14 (1:1000, SAB4501657), mAb AN-17 and β-actin (1:20,000; Sigma-Aldrich, Castle Hill, Australia). Secondary antibodies HRP-conjugated goat anti-mouse, anti-rabbit and donkey anti-goat (1:50,000; Merck Millipore, Kilsyth, Australia) were used Bilandzic et al. (2013) Mol Endocrinol, 2013. 27(3):466-79). Protein bands were detected using Clarity Western ECL blotting substrate (Biorad #1705061) and visualized using a ChemiDoc (Trade Mark) MP System (Bio-Rad, #1708280).
A 1 μg aliquot of full-length recombinant KRT14 protein (Abcam #ab73637) was separated by SDS PAGE and transferred to PVDF membrane using standard procedures (PMID: 23952987). The membrane was probed with mAb AN-17 at dilutions of 1:1000, 1:5000 and 1:10,000. Secondary antibody was goat anti-mouse HRP conjugate (1:50,000 dilution), with detection of KRT14 using chemiluminescence according to standard protocols (PMID: 23952987; Rainczuk et al., J Proteome Res. 2013; 12(9):4074-88).

B1: mAb AN-17: monoclonal anti-KRT14 antibody; heavy chain variable region SEQ ID NO:3, light chain variable region SEQ ID NO:5 (clone AN-17A RG4.E5b.A7.B4) (antibody, listed as Mus musculus, V domains shown)
VH: QVQLKESGPGLVAPSQSLSITCTVSGFSLSRYSVHWVRQPPGKGLEWLGMIWGGGSTDYNSALKSRLSISKDNSKSQVFLKMNSLQTDDTAMYYCARKDYGYSYFDYWGQGTTLTVSS
VL: DVLMTQTPLSLPVSLGDQASISCRSSQSIVHSNGNTYLEWYLQKPGQSPKLLIYKVSNRFSGVPDRFSGSGSGTDFTLKISRVEAEDLGVYYCFQGSHVPFTFGSGTKLEIKRADAAPTVS
[1]
  staining localization in tumour tissue: Staining was restricted to tumour epithelium
[1]; listed as mAb A-17
  staining localization in tumour tissue: staining observed specifically in the tumour epithelium
[2]
  initial levels in tumour tissue vs reproductive tract of mice without tumours: 2 orders of magnitude
[3]; fixed and permeabilized cells
  staining localization: Specific intracellular cytoplasmic localization
[3]; intact live cells
  staining localization: predominant cell surface localization
[4]
  detection of KRT14 protein by western blotting: successfully detected KRT14 protein
